Measurements from PMC7182499 (Journal of inherited metabolic disease, 2019).
Positions count from the first letter of the chain named. In names and notes the source's numbering stands.

T1: ALDH7A1 (aldehyde dehydrogenase 7A1; antiquitin) (Homo sapiens, UniProt P49419, E427Q)
T1 sequence (P49419 29-539 E427Q): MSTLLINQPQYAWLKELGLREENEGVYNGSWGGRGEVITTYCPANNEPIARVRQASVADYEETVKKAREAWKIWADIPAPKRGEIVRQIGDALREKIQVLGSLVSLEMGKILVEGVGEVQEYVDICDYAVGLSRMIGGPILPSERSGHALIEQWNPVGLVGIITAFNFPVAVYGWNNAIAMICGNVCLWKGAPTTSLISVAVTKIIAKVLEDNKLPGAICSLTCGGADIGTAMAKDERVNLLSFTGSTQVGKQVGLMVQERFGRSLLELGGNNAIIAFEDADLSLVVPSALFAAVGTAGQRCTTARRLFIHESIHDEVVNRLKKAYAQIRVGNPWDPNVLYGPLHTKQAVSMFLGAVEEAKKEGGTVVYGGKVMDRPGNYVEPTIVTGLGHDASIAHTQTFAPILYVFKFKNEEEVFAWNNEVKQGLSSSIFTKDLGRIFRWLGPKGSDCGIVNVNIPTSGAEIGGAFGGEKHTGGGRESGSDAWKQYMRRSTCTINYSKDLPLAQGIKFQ

T2: ALDH7A1 (aldehyde dehydrogenase 7A1; antiquitin) (Homo sapiens, UniProt P49419, E427G)
T2 sequence (P49419 29-539 E427G): T1 sequence (P49419 29-539 E427Q) with Q399G

B1: wild-type ALDH7A1 (aldehyde dehydrogenase 7A1) (enzyme, human, UniProt P49419 27-539, looked up)
chain: AFMSTLLINQPQYAWLKELGLREENEGVYNGSWGGRGEVITTYCPANNEPIARVRQASVADYEETVKKAREAWKIWADIPAPKRGEIVRQIGDALREKIQVLGSLVSLEMGKILVEGVGEVQEYVDICDYAVGLSRMIGGPILPSERSGHALIEQWNPVGLVGIITAFNFPVAVYGWNNAIAMICGNVCLWKGAPTTSLISVAVTKIIAKVLEDNKLPGAICSLTCGGADIGTAMAKDERVNLLSFTGSTQVGKQVGLMVQERFGRSLLELGGNNAIIAFEDADLSLVVPSALFAAVGTAGQRCTTARRLFIHESIHDEVVNRLKKAYAQIRVGNPWDPNVLYGPLHTKQAVSMFLGAVEEAKKEGGTVVYGGKVMDRPGNYVEPTIVTGLGHDASIAHTETFAPILYVFKFKNEEEVFAWNNEVKQGLSSSIFTKDLGRIFRWLGPKGSDCGIVNVNIPTSGAEIGGAFGGEKHTGGGRESGSDAWKQYMRRSTCTINYSKDLPLAQGIKFQ
B2: ALDH7A1 E427G (Glu427Gly) (enzyme, human, UniProt P49419 27-539, looked up)
chain: B1 chain with E401G
B3: ALDH7A1 E427D (Glu427Asp) (enzyme, human, UniProt P49419 27-539, looked up)
chain: B1 chain with E401D
B4: ALDH7A1 E427Q (Glu427Gln) (enzyme, human, UniProt P49419 27-539, looked up)
chain: B1 chain with E401Q

Legend:
[1] = target: T1, ALDH7A1 (aldehyde dehydrogenase 7A1; antiquitin); experiment: X-ray crystal structure, […] Å, co-crystallisation; assay type: binding; settings: 15 mM NAD+; pH 6.2; ADP portion ordered, NMN disordered
[2] = target: T2, ALDH7A1 (aldehyde dehydrogenase 7A1; antiquitin); experiment: X-ray crystal structure, […] Å, co-crystallisation; assay type: binding; settings: 5 mM NAD+; pH 6.5; NMN disordered
SAXS = target: the molecule itself; experiment: SAXS
crystal structure = target: the molecule itself; experiment: crystal structure

Molecule | stoichiometry N (crystal structure) | further results
NC(=O)c1ccc[n+]([C@@H]2O[C@H](COP(=O)(O)OP(=O)(O)OC[C@H]3O[C@@H](n4cnc5c(N)ncnc54)[C@H](O)[C@@H]3O)[C@@H](O)[C@H]2O)c1 [NAD^+] | – | X-ray crystal structure, 2.06 Å, co-crystallisation [1]: The crystal structure of E427Q complexed with NAD^+ was determined in space group C2; X-ray crystal structure, 2.15 Å, co-crystallisation [2]: the NMN of NAD^+ bound to E427G is disordered
B1 | – | stoichiometry N (SAXS): 4
B2 | 4 | –
B3 | 4 | –
B4 | 4 | –
